Measurements as given in paper PMC6491591 (2019).

B1: Gonadotropin Regulated Testicular Helicase (GRTH/DDX25), wild type, V5-His tagged [human] / Protein Kinase A catalytic subunit alpha (PKA-Cα), overexpressed [not stated] (parent complex)
chain 1: MASLLWGGDAGAAESERLNSHFSNLSQPRKNLWGIKSTAVRNIDGSINNINEDDEEDVVDLAANSLLNKLIHQSLVESSHRVEVLQKDPSSPLYSVKTFEELRLKEELLKGIYAMGFNRPSKIQEMALPMMLAHPPQNLIAQSQSGTGKTAAFVLAMLSRVNALELFPQCLCLAPTYELALQTGRVVEQMGKFCVDVQVMYAIRGNRIPRGTDITKQIIIGTPGTVLDWCFKLKLIDLTKIRVFVLDEADVMIDTQGFSDHSIRIQRALPSECQMLLFSATFEDSVWHFAERIIPDPNVIKLRKEELTLNNIRQYYVLCEHRKDKYQALCNIYGSITIGQAIIFCQTRRNAKWLTVEMIQDGHQVSLLSGELTVEQRASIIQRFRDGKEKVLITTNVCARGIDVKQVTIVVNFDLPVKQGEEPDYETYLHRIGRTGRFGKKGLAFNMIEVDELPSLMKIQDHFNSSIKQLNAEDMDEIEKIDY
chain 2: not shown

Variants of: B1
Test: co-immunoprecipitation (IP: V5 antibody), western blot band intensity quantified with ImageJ; COS-1 cells co-transfected with GRTH-V5 and PKA-Cα; read off a plot

Row | response [Arbitrary units] | Variant
1 | ~1.2 | chain 1 E165A
2 | ~1.3 | chain 1 T239A
3 | ~1 | chain 1 E165A, chain 1 K240A

Variants of: B1
Test: co-immunoprecipitation (IP: PKA-Cα antibody), western blot band intensity quantified with ImageJ; COS-1 cells co-transfected with GRTH-V5 and PKA-Cα; read off a plot

Row | response [Arbitrary units] | Variant
4 | ~1.2 | chain 1 E165A
5 | ~1.2 | chain 1 T239A
6 | ~1.2 | chain 1 E165A, chain 1 K240A
